Source: patent US20220177587A1, “METHODS AND USES OF VARIANT CD80 FUSION PROTEINS AND RELATED CONSTRUCTS” (Alpine Immune Sciences, Inc., priority 2018, published 2022)
Where a chain is given by its changes, count along the chain named. In names and notes the source's numbering stands.

B1: E35D/N48K (protein)
chain: VIHVTKEVKEVATLSCGHNVSVEELAQTRIYWQKDKKMVLTMMSGDMKIWPEYKNRTIFDITNNLSIVILALRPSDEGTYECVVLKYEKDAFKREHLAEVTLSVKAD
B2: M47V/N48K/V68M (protein)
chain: B1 chain with D35E, M47V, V68M
B3: M47V/V68M (protein)
chain: B1 chain with D35E, M47V, K48N, V68M
B4: E35D/K89N (protein)
chain: B1 chain with K48N, K89N
B5: M47V/N48K/K89N (protein)
chain: B1 chain with D35E, M47V, K89N
B6: E35D/N48K/K89N (protein)
chain: B1 chain with K89N
B7: H18Y/V68M/A71G/D90G (protein)
chain: B1 chain with H18Y, D35E, K48N, V68M, A71G, D90G
B8: E35D/M47V/N48K/V68M/L85Q (protein)
chain: B1 chain with M47V, V68M, L85Q
B9: M47L/V68M/A71G/D90G (protein)
chain: B1 chain with D35E, M47L, K48N, V68M, A71G, D90G
B10: E35D/D46V/M47V/V68M/L85Q (protein)
chain: B1 chain with D46V, M47V, K48N, V68M, L85Q
B11: E35D/M47V/N48K/K89N (protein)
chain: B1 chain with M47V, K89N
B12: H18Y/A26E/E35D/M47L (protein)
chain: B1 chain with H18Y, A26E, M47L, K48N
B13: E35D/M47V/V68M/L85Q/K89N (protein)
chain: B1 chain with M47V, K48N, V68M, L85Q, K89N
B14: E35D/D46V/M47V/N48K/V68M (protein)
chain: B1 chain with D46V, M47V, V68M

Legend:
[1] = molecular target: T1, CD28 (Homo sapiens, UniProt P10747); test: Flow binding to Jurkat/IL2 reporter cells (CD28); parameters: host or cells: Jurkat cells expressing an IL-2-luciferase reporter; conditions: for CD28 MFI at 33.3 nM: Jurkats (CD28)
Procedure, shortened: (§1)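 Binding EC50 and PE mean fluorescence intensity derived by flow cytometry using PE-labelled anti-human Fc secondary. Target cells were CTLA4- or PD-L1-transfected CHO lines and CD28-expressing Jurkat/IL2 reporter cells, stained with fusion proteins on ice for 45 min following BSA blocking.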

[2] = molecular target: T1, CD28; test: Jurkat/IL2 + CHO/OKT3 +/- PD-L1 reporter assay: PD-L1-dependent CD28 costimulation; type: cell-based; parameters: host or cells: Jurkat cells expressing an IL-2-luciferase reporter; conditions: Jurkat/IL2 + CHO/OKT3/PD-L1; for Fold Increase over WT CD80-IgV-Fe: 5.0 nM
Procedure, shortened: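 Readout is relative luminescence from lysed cocultures: test protein given 15 min at room temperature to Jurkat cells before adding CHO artificial APCs displaying OKT3 alone or OKT3 plus PD-L1, then 5 h at 37 °C, 5% CO2.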

[3] = molecular target: huCTLA4 (Homo sapiens, UniProt P16410); test: Flow binding to CHO cells stably expressing CTLA4; parameters: huCTLA4 and huPD-L1, full-length mammalian surface expression constructs were generated; expressed in transfected cells; host or cells: CHO cells, lentiviral transduction, sorted to >98% purity; conditions: for CTLA4 MFI at 33.3 nM: CHO cells stably expressing CTLA4
Sequence of huCTLA4 (P16410 36-223): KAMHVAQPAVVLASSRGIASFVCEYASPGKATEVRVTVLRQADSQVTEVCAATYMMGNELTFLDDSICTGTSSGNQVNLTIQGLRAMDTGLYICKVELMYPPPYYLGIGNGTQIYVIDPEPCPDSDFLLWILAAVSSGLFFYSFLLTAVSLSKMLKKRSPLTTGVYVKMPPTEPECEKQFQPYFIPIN
Procedure, shortened: as §1

[4] = molecular target: huPD-L1 (Homo sapiens, UniProt Q9NZQ7); test: Flow binding to CHO cells stably expressing PD-L1; parameters: huCTLA4 and huPD-L1, full-length mammalian surface expression constructs were generated; expressed in transfected cells; host or cells: CHO cells, lentiviral transduction, sorted to >98% purity; conditions: for PD-L1 MFI at 33.3 nM: CHO cells stably expressing PD-L1; for Ratio of PDL1:CD28: ratio of MFI at 33.3 nM
Sequence of huPD-L1 (Q9NZQ7 19-290): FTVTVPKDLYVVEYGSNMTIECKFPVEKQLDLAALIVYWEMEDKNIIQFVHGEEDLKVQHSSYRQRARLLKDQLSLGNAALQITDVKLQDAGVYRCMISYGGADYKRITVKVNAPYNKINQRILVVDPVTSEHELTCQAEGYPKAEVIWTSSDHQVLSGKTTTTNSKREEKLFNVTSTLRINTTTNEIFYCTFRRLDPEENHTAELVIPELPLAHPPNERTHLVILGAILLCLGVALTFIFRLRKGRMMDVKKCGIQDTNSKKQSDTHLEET
Procedure, shortened: as §1

[5] = Table E19, MFI at 33.3 nM relative to WT CD80 ECD-Fc (Abcam)
[6] = Table E20, MFI at 33.3 nM relative to CD80 WT IgV-Fc

Row | CD28 MFI at 33.3 nM ([1]; Table E19) | CD28 Fold change to WT CD80 [1, 5] [fold] | Fold Increase over WT CD80-IgV-Fe ([2]; Table E21) [fold] | Relative Luciferase Units (RLU), CD80 Conc 5.0 nM ([2]; Table E21) [RLU] | CTLA4 MFI at 33.3 nM ([3]; Table E19) | CTLA4 Fold change to WT CD80 [3, 5] [fold] | PD-L1 MFI at 33.3 nM ([4]; Table E19) | PD-L1 Fold change to WT CD80 [4, 5] [fold] | Ratio of PDL1:CD28 ([4]; Table E19) | CD28 MFI at 33.3 nM ([1]; Table E20) | CD28 Fold change to WT CD80 [1, 6] [fold] | Fold Increase over WT CD80-IgV-Fe ([2]; Table E22) [fold] | Relative Luciferase Units (RLU), CD80 Conc 5.0 nM ([2]; Table E22) [RLU] | CTLA4 MFI at 33.3 nM ([3]; Table E20) | CTLA4 Fold change to WT CD80 [3, 6] [fold] | PD-L1 MFI at 33.3 nM ([4]; Table E20) | PD-L1 Fold change to WT CD80 [4, 6] [fold] | Ratio of PDL1:CD28 ([4]; Table E20) | Molecule
1 | 194 | 0.3 | 5.1 | 590 | 41325 | 1.0 | 6545 | 51.1 | 33.7 | – | – | – | – | – | – | – | – | – | B1
2 | 641 | 0.9 | 5.8 | 664 | 34612 | 0.9 | 14464 | 113.0 | 22.6 | – | – | – | – | – | – | – | – | – | B2
3 | 328 | 0.5 | 4.8 | 553 | 7282 | 0.2 | 4294 | 33.5 | 13.1 | – | – | – | – | – | – | – | – | – | B3
4 | 236 | 0.3 | 2.5 | 293 | 21755 | 0.5 | 757 | 5.9 | 3.2 | – | – | – | – | – | – | – | – | – | B4
5 | 366 | 0.5 | 4.1 | 472 | 42071 | 1.0 | 2366 | 18.5 | 6.5 | – | – | – | – | – | – | – | – | – | B5
6 | 411 | 0.6 | 6.3 | 719 | 34727 | 0.9 | 5766 | 45.0 | 14.0 | – | – | – | – | – | – | – | – | – | B6
7 | – | – | – | – | – | – | – | – | – | 3414 | 77.8 | 2.04 | 797 | 22321 | 16.4 | 30670 | 703.4 | 9.0 | B7
8 | 118 | 0.2 | 7.9 | 907 | 26104 | 0.6 | 10479 | 81.9 | 88.8 | – | – | – | – | – | – | – | – | – | B8
9 | – | – | – | – | – | – | – | – | – | 3610 | 82.2 | 1.98 | 771 | 17418 | 12.8 | 31114 | 713.6 | 8.6 | B9
10 | 331 | 0.5 | 8.5 | 980 | 36463 | 0.9 | 26290 | 205.4 | 79.4 | – | – | – | – | – | – | – | – | – | B10
11 | 701 | 1.0 | 7.1 | 814 | 43756 | 1.1 | 6669 | 52.1 | 9.5 | – | – | – | – | – | – | – | – | – | B11
12 | – | – | – | – | – | – | – | – | – | 324 | 7.4 | 3.10 | 1208 | 23990 | 17.7 | 9951 | 228.2 | 30.7 | B12
13 | 246 | 0.3 | 7.4 | 854 | 30276 | 0.7 | 12085 | 94.4 | 49.1 | – | – | – | – | – | – | – | – | – | B13
14 | 1085 | 1.5 | 6.1 | 696 | 23880 | 0.6 | 25940 | 202.7 | 23.9 | – | – | – | – | – | – | – | – | – | B14
